Measurements: patent publication US20050069542A1 (Human Genome Sciences, published 2005)

Target: T1, flag-tagged soluble TL3 (amino acids 105-251 of SEQ ID NO:234) (Homo sapiens (Human), UniProt O75888 105-250)
T1 construct: Heterologous flag-tagged control protein, immobilized in the ELISA; also called flagged tagged TL-3; not shown: Flag tag
T1 sequence: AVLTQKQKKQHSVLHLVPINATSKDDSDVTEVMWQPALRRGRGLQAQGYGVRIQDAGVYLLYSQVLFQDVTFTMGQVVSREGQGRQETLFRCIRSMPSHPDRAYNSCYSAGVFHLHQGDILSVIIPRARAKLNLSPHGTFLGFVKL
Test: phage ELISA on immobilized flag-tagged soluble TL3
Method in brief: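 Phage displaying scFvs selected against flag-tagged GMAD were screened by ELISA against immobilized flag-tagged soluble TL3 (residues 105-251) as a heterologous flag-tagged counter-target, to check that binding is GMAD-specific.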

B1: GMCC107 (scFv)
scFv: QVQLVQSGAEVKKPGASVKVSCRTSGYTFTDHSMHWVRQAPGQRFEWMGWIGADSGSTQYSRNFQGRLTIGRDTSASTVYMELTSLRSEDTAVYYCARVGGGQGWYSGMDVWGRGTLVTVSSGGGGSGGGGSGGGGSAQAVLTQPSSVSGAPGQRVTISCTGSSSNIGASYDVHWYQQLPGTAPKLLIYNNNNRPSGVPDRFSGSRSGTSASLAITGLQAEDEADYYCHSYDSNLSGDVFGSGTKLTVLG
binding result: no binding

B2: GMCC106 (scFv)
scFv: QVQLQESGPGLVKPSGTLSLTCAVSVGSINESNWWSWVRQSPGKGLEWIGEIYPTGTTNYNPSLESRVTISVDKSRNLFSLKLKSVTAADSAMYFCARDRWAGGFDLWGRGTMVTVSSGGGGSGGGGSGGGGSAQSVLTQPPSASGTPGQRVTISCSGSSSNIGSNSVYWYQQLPGTAPKLLIYRNNQRPSGVPDRFSASKSGTSASLAISGLRSEDEADYYCAAWDDSLSGLVFGGGTKLTVLG
binding result: no binding

B3: GMBC610 (scFv)
scFv: QVTLKESGAEVKKPGASVKVSCKTSGFTFGAYYIHWVRQVPGQGLEWMGWIDPNNGGTNYAQKFQGRVTMTRDMSTTTTYMEVSGLHSDDTAVYYCARARVATILEYWGRGTLVTVSSGGGGSGGGGSGGGGSPELTQDPAVSVALGQTVRITCQGDSLRSYYASWYQQKPGQAPVLVIYGKNNRPSGIPDRFSGSSSGNTASLTITGAQAEDEADYYCNSRDSSGNHVVFGGGTKLTVLG
binding result: no binding

B4: GMBC696 (scFv)
scFv: EVQLVQSRAEVKKPGASVKVSCKTSGYTFNGYYIHWVRQAPGQGLEWMGWIDPINSVTNYAQNFQGRVTMTRDTSINTAYMELSRLTSDDTAVYYCARARVSTILQYWGQGTLVTVSSGGGGSGGGGSGGGGSSELTQDPAVSVALGQTVRITCQGDSLRSYYASWYQQKPGQAPVLVIYGKNNRPSGIPDRFSGSSSGNTASLTITGAQAEDEADYYCNSRDSSGNHVVFGGGTKLTVLG
binding result: no binding

B5: GMCC105 (scFv)
scFv: QVQLVQSGGGVVQPGRSLRLSCTASGFNLGSHGMHWVRQAPGKGLEWVAVIGFDGTTKYYVDSVKGRFTISRDNSRNTLSLQMNSLRAEDTAVYYCVREDYYYDSSGYYFDYWGRGTLVTVSSGGGGSGGGGSGGGGSALSSELTQDPFVSVALGQTVRIACRGDSLRDSYASWYQQKPGQAPRLLVYGNNLRPSGIPGRFSGSSSGDTASLSITETQAGDEADYYCSSRGNSTSRLYVFGTGTKLTVLG
binding result: no binding

B6: GMBC673 (scFv)
scFv: EVQLVESGGGLVQTGGSLRLSCAASGFPIGSHWMSWVRQSPGKGLEWVASIKQDGREKHFVDSVKGRFGISRDNAKDSLYLQMNSLRIEDTAVYYCARETYGGYYYYFMDVWGRGTLVTVSSGGGGSGGGGSGGGGSSELTQDPAVSVALGQTVRITCQGDSLRSYYASWYQQKPGQAPVLVIYGKNNRPSGIPDRFSGSSSGNTASLTITGAQAEDEADYYCQTWGPGIRVFGGGTKLTVLG
binding result: no binding

B7: GMCC108 (scFv)
scFv: EVQLVQSGAEVKEPGASVTVSCKASGYTFISYHMHWVRQAPGQGLEWMGIINPSGGDTTYAQKFQGRVTMTRDTSTSTVYMELRSLRFEDTARYYCARDLKFYDFRSGKYQDYGMDVWGQGTLVTVSSGGGGSGGGGSGGGGSAQSVLTQPPSLSVAPGQTASITCGGNDIGTKSVHWYQLKPGQAPVLVVYDNRDRPSGIPERFSGSNSGNTATLTISRVEGGDEADYYCQVWDSSIDHSEYVFGTGTKLTVLG
binding result: no binding

B8: GMBC687 (scFv)
scFv: QVQLVQSGAEVKKPGSSVKVSCKAPGDTFSNYIFNWVRQAPGQGLEWMGGIIPKFGTVNDAHKFQDRVTIAADESTNTASMELSSLTSEDTAVYYCACEPIPKDYGDVNGLEIWGKGTMVTVSSGGGGSGGGGSGGGGSDIQMTQSPSTLSASIGDRVTITCRASEGIYHWLAWYQQKPGKAPKLLIYKASSLASGAPSRFSGSGSGTDFTLTISSLQPDDFATYYCQQYSNYPLTFGGGTKLEIKR
binding result: no binding

B9: GMBC608 (scFv)
scFv: EVQLVQSGGGLVQPGRSLRLSCAASGFTFSDSYMTWIRQAPGEGLEFVSYISSGSSTTYYTDSVKGRFTISRDNSKNTLYLQMNSLRPEDTAVYYCARRSISSDYYSYYLDVWGKGTLVTVSSGGGGSGGGGSGGGGSSELTQDPAVSVALGQTVRITCQGDSLRSYYASWYQQKPGQAPVLVIYGKNNRPSGIPDRFSGSSSGNTASLTITGAQAEDEADYYCNSRDSSGNHVVFGGGTKLTVLG
binding result: no binding

B10: GMBC609 (scFv)
scFv: QVQLVESGGGLVKPGESLRLSCEASGFEFNYAWMSWVRQAPGKGLEWVGRSRSEASGGTTDYAAPLQDRFTISRDDSKNTLYLQVNSLKIEDTGVYFCKWEKSEYYGMDVWGRGTPVTVSSGGGGSGGGGSGGGGSQSVLTQPPSVSAAPGQKVTISCSGSTSNIGNNYVSWYQQHPGKAPKLMIYDVSKRPSGVPDRFSGSKSGNSASLDISGLQSEDEADYYCAAWDDSLSEFLFGTGTKLTVLG
binding result: no binding

B11: GMBC666 (scFv)
scFv: EVQLVESGGGLAKPGESLRLSCEASGFEFNYAWMSWVRQAPGKGLEWVGRSRSEASGGTTDYAAPLQDRFTISRDDSKNTLYLQVNSLKIEDTGVYFCKWEKSEYYGMDVWGKGTMVTVSSGGGGSGGGGSGGGGSQSVLTQPPSVSAAPGQKVTISCSGSTSNIGNNYVSWYQQHPGKAPKLMIYDVSKRPSGVPDRFSGSKSGNSASLDISGLQSEDEADYYCAAWDDSLSEFLFGTGTKLTVLG
binding result: no binding

B12: GMBC681 (scFv)
scFv: QVQLVQSGGGVVQPGGSLRLSCAASGFTFSSYGMHWVRQAPGKGLEWVAFIRYDGSNKYYADSVKGRFTISRDNSKNTLYLQMNSLRAEDTAVYYCAKGGTGYFDLWGRGTLVTVSSGGGGSGGGGSGGGGSDIQMTQSPSTLSASIGDRVTITCRASEGIYHWLAWYQQKPGKAPKLLIYKASSLASGAPSRFSGSGSGTDFTLTISSLQPDDFATYYCQQYSNYPLTFGGGTKLEIKR
binding result: no binding

B13: GMBC691 (scFv)
scFv: EVQLVQSGAEVKKPGASMKVSCKTSGDTFNGFYVHWVRQAPGQGLEWMGRINPNGGGTNYAQKFQGRVTMTRDTSMNTAYMELRSLRSDDTAVYYCARDLFYDFWSDYYRNDQYYYMDVWGRGTLVTVSSGGGGSGGGGSGGGGSSELTQDPAVSVALGQTVRITCQGDSLRSYYASWYQQKPGQAPVLVIYGKNNRPSGIPDRFSGSSSGNTASLTITGAQAEDEADYYCNSRDSSGNHVVFGGGTKLTVLG
binding result: no binding

B14: GMBC683 (scFv)
scFv: EVQLVESGGGLVQPGRSLRLSCAASGFTFSSYGMHWVRQAPGKGLEWVAVISYDGSNKYYADSVKGRFTISRDNSKNTLYLQMNSLRAEDTAVYYCAKRAAAGTLDYWGQGTTVTVSSGGGGSGGGGSGGGGSSELTQDPAVSVALGQTVRITCQGDSLRSYYASWYQQKPGQAPVLVIYGKNNRPSGIPDRFSGSSSGNTASLTITGAQAEDEADYYCNSRDSSGNHVVFGGGTKLTVLG
binding result: no binding

B15: GMBC669 (scFv)
scFv: QVQLVESGGALVKPGGSLRLSCAASGFTFSDAWMNWVRQAPGKGLEWVGRIKSKGSGGTIDYAAPVKDRFTISRDDSKNTLYLQMNSLKTEDTALYYCTWDWDFYYGMNVWGQGTLVTVSSGGGGSGGGGSGGGGSQSVLTQPPSASGSPGQSVTISCTGTSSDVGGYNYVSWYQQHPGKAPKFMIYDVSKRPSGVSNRFSGSKSGNTASLTISGVQAEDEADYYCSSYTSASTVIFGGGTKLTVLG
binding result: no binding

B16: GMBC689 (scFv)
scFv: QVQLVESGGGLVKPGGSLRLSCAASGFTFSDAWMNWVRQAPGKGLEWVGRIKSKGSGGTIDYAAPVKDRFTISRDDSKNTLYLQMNSLKTEDTALYYCTWDWDFYYGMNVWGQGTLVTVSSGGGGSGGGGSGGGGSQSVLTQPPSASGSPGQSVTISCTGTSSDVGGYNYVSWYQQHPGKAPKFMIYDVSKRPSGVSNRFSGSKSGNTASLTISGVQAEDEADYYCSSYTSASTVVFGGGTKLTVLG
binding result: no binding

B17: GMBC678 (scFv)
scFv: EVQLVESGGGLVKPGGSLRLSCAASGFTFSDAWMNWVRQAPGKGLEWVGRIKSKGSGGTIDYAAPVKDRFTISRDDSKNTLYLQMNSLKTEDTALYYCTWDWDFYYGMNVWGQGTLVTVSSGGGGSGGGGSGGGGSQSVLTQPPSASGSPGQSVTISCTGTSSDVGGYNYVSWYQQHPGKAPKFMIYDVSKRPSGVSNRFSGSKSGNTASLTISGVQAEDEADYYCSSYTSASTVIFGGGTKLTVLG
binding result: no binding

B18: GMCC101 (scFv)
scFv: EVQLVQSGAEVKKPGSSVKVSCKASGGTFRTYAITWVRQAPGQGLEWMGGIIPISATANYAQKFQGRVTITADESMSTAYMELSSLRSEDTAVYYCARDREPHYFDNWGRGTMVTVSSGGGGSGGGGSGGGGSALPVLTQPPSVSEAPRQGVTISCSGSSSNIGNNAVSWYQQLPGQAPKLLIYYDDLLPSGVSDRFSASKSGTSASLAISGLQSEDEADYYCAAWDDSLNGVIFGGGTQLTVLS
binding result: no binding

B19: GMBC730 (scFv)
scFv: QVQLVESGGDSVKPGGSLRLSCAGSGFTFSDAWMNWVRQAPGKGLEWVGRMKSKGSGGTRDYAAPVNGRFTISRDDSKNTLYLQMNSLNTEDTGVYYCTWDWDFYYGMDVWGKGTTVTVSSGGGGSGGGGSGGGGSQSVLTQPASVSGSPGQSITISCTGTSSDVGGYNYVSWYQQHPGKAPKLMIYEGSKRPSGVSNRFSGSKSGNTASLTISGLQAEDEADYYCSSYTTRSTRVFGGGTKLTVLG
binding result: no binding
